Legend:
Nectin-1 (HveC) = Nectin-1 (HveC) (UniProt Q15223); assay: cell-based or functional assay
HveA (formerly HveM) = HveA (formerly HveM) (UniProt Q92956); assay: cell-based or functional assay
[1] = target: wild-type gD1-60 polypeptide (residues 1-60 of mature gD; plasmid pGG5414) (herpes simplex virus 1, UniProt P36318 26-85); assay: co-immunoprecipitation with anti-Myc from HEK293 cells co-transfected with pGG5417+pGG5414

For “IL13-gD chimeric glycoprotein D of recombinant virus R5144 (IL13 in the place of gD residues 1-32, V37S)”, the Replication of R5144 in J-Nectin cells (virus yield) (Nectin-1 (HveC)) was 50 and the Replication of R5144 in J-HveA cells (virus yield) (HveA (formerly HveM)) was 300.

With “IL13-gD chimeric glycoprotein D of recombinant virus R5141 (IL13 in the place of gD residues 1-32, V34S)” the Replication of R5141 in J-Nectin cells (virus yield) (Nectin-1 (HveC)) was 70 and the Replication of R5141 in J-HveA cells (virus yield) (HveA (formerly HveM)) was 40.

B1: gD219-314 polypeptide (mature gD residues 219-314, without transmembrane and cytoplasmic domains, Myc epitope at the C-terminus; plasmid pGG5417) (other)
chain: MLPRFIPENQRTVAVYSLKIAGWHGPKAPYTSTLLPPELSETPNATQPELAPEDPEDSALLEDPVGTVVPQIPPNWHIPSIQDAATPYHPPATPNN
notes: Expressed in HEK293 cells under the CMV promoter; also called C-terminal domain of gD; R5417
B1: no binding [1].
